T1: HTRA4, P83105
T1 sequence (P83105 378-476, limits assumed, looked up): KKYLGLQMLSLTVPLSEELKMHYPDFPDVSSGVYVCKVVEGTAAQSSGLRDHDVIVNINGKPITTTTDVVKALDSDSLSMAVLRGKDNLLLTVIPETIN

T2: PTPN13_1, Q12923
T2 sequence (Q12923 1088-1188, limits assumed, looked up): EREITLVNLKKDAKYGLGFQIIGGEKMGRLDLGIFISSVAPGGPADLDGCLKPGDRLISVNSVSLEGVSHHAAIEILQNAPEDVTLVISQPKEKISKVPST

T3: APBA3_1, O96018
T3 sequence (O96018 389-490, limits assumed, looked up): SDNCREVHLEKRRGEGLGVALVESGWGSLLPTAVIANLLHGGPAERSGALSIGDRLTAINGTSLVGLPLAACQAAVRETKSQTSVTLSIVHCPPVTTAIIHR

T4: TIAM2, Q8IVF5
T4 sequence (Q8IVF5 885-986, limits assumed, looked up): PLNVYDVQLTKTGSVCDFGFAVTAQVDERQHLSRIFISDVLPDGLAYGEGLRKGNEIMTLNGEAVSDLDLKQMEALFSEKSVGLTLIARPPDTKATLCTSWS

T5: RHPN1, Q8TCX5
T5 sequence (Q8TCX5 508-602, limits assumed, looked up): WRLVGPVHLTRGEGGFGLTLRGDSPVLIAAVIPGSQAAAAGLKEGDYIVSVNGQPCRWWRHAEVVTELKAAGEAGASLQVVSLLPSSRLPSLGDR

T6: SNTG2, Q9NY99
T6 sequence (Q9NY99 68-166, limits assumed, looked up): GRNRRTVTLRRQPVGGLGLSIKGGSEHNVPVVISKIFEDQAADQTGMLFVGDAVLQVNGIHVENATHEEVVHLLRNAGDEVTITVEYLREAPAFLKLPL

T7: RAPGEF6, Q8TEU7
T7 sequence (Q8TEU7 525-625, limits assumed, looked up): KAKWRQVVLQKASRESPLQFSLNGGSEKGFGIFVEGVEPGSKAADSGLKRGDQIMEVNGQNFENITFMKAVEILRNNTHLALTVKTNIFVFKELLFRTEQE

T8: FRMPD1, Q5SYB0
T8 sequence (Q5SYB0 52-145, limits assumed, looked up): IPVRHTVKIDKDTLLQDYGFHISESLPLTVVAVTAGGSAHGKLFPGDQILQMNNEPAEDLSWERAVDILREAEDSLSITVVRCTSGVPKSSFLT

T9: PDZD7_3, Q9H5P4
T9 sequence (Q9H5P4 857-944, limits assumed, looked up): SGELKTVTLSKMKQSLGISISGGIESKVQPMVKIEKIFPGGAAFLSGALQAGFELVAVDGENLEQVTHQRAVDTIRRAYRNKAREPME

T10: DVL3, Q92997
T10 sequence (Q92997 244-331, limits assumed, looked up): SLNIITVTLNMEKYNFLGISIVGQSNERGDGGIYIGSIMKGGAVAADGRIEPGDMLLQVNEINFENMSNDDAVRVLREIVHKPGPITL

T11: SIPA1L2, Q9P2F8
T11 sequence (Q9P2F8 945-1036, limits assumed, looked up): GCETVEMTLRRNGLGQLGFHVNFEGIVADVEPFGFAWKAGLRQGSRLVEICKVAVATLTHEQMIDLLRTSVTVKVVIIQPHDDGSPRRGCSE


Target: T1, HTRA4, P83105
Experiment: holdup assay
Design: key: below the threshold = too weak to quantify, mostly under pKd 3.1 to 4
Details: plain residues with an end cap or a label only (N-terminal biotin on a linker: ado-ado)

Binder	pKd
STKRKLASAV [NCF1, P14598]	below the threshold
SPDRDRESIV [SCN5A, Q14524]	3.9

Target: T2, PTPN13_1, Q12923
Experiment: holdup assay
Design: key: below the threshold = too weak to quantify, mostly under pKd 3.1 to 4
Details: plain residues with an end cap or a label only (N-terminal biotin on a linker: ado-ado)

Binder	pKd
STKRKLASAV [NCF1, P14598]	below the threshold
SPDRDRESIV [SCN5A, Q14524]	below the threshold

Target: LNX1_2, Q8TBB1
Experiment: holdup assay
Design: key: below the threshold = too weak to quantify, mostly under pKd 3.1 to 4
Details: plain residues with an end cap or a label only (N-terminal biotin on a linker: ado-ado)

Sequence of LNX1_2, Q8TBB1 (Q8TBB1 371-470): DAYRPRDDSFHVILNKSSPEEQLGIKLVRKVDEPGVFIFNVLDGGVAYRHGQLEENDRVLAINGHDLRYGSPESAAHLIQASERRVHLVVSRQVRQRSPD

Binder	pKd
STKRKLASAV [NCF1, P14598]	below the threshold
SPDRDRESIV [SCN5A, Q14524]	below the threshold

Target: FRMPD2_3, Q68DX3
Experiment: holdup assay
Design: key: below the threshold = too weak to quantify, mostly under pKd 3.1 to 4
Details: plain residues with an end cap or a label only (N-terminal biotin on a linker: ado-ado)

Sequence of FRMPD2_3, Q68DX3 (Q68DX3 1073-1166): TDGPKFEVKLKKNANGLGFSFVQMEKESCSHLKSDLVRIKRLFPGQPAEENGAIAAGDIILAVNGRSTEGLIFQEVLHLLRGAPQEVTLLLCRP

Binder	pKd
STKRKLASAV [NCF1, P14598]	below the threshold
SPDRDRESIV [SCN5A, Q14524]	3.48

Target: FRMPD4, Q14CM0
Experiment: holdup assay
Design: key: below the threshold = too weak to quantify, mostly under pKd 3.1 to 4
Details: plain residues with an end cap or a label only (N-terminal biotin on a linker: ado-ado)

Sequence of FRMPD4, Q14CM0 (Q14CM0 67-160): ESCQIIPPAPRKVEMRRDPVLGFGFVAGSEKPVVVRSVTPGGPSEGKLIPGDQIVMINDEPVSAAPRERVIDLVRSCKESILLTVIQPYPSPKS

Binder	pKd
STKRKLASAV [NCF1, P14598]	below the threshold
SPDRDRESIV [SCN5A, Q14524]	below the threshold

Target: NHERF4_4, Q86UT5
Experiment: holdup assay
Design: key: below the threshold = too weak to quantify, mostly under pKd 3.1 to 4
Details: plain residues with an end cap or a label only (N-terminal biotin on a linker: ado-ado)

Sequence of NHERF4_4, Q86UT5 (Q86UT5 464-550): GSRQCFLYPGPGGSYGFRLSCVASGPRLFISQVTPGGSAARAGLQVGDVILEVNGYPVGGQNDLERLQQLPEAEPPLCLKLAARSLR

Binder	pKd
STKRKLASAV [NCF1, P14598]	below the threshold
SPDRDRESIV [SCN5A, Q14524]	3.88

Target: T3, APBA3_1, O96018
Experiment: holdup assay
Design: key: below the threshold = too weak to quantify, mostly under pKd 3.1 to 4
Details: plain residues with an end cap or a label only (N-terminal biotin on a linker: ado-ado)

Binder	pKd
STKRKLASAV [NCF1, P14598]	below the threshold
SPDRDRESIV [SCN5A, Q14524]	below the threshold

Target: Inadl_6, Q8NI35
Experiment: holdup assay
Design: key: below the threshold = too weak to quantify, mostly under pKd 3.1 to 4
Details: plain residues with an end cap or a label only (N-terminal biotin on a linker: ado-ado)

Sequence of Inadl_6, Q8NI35 (Q8NI35 1058-1167): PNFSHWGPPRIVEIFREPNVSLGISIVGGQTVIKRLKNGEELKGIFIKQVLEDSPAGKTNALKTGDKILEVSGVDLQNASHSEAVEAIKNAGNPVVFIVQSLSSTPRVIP

Binder	pKd
STKRKLASAV [NCF1, P14598]	below the threshold
SPDRDRESIV [SCN5A, Q14524]	below the threshold

Target: T4, TIAM2, Q8IVF5
Experiment: holdup assay
Design: key: below the threshold = too weak to quantify, mostly under pKd 3.1 to 4
Details: plain residues with an end cap or a label only (N-terminal biotin on a linker: ado-ado)

Binder	pKd
STKRKLASAV [NCF1, P14598]	3.75
SPDRDRESIV [SCN5A, Q14524]	below the threshold

Target: T5, RHPN1, Q8TCX5
Experiment: holdup assay
Design: key: below the threshold = too weak to quantify, mostly under pKd 3.1 to 4
Details: plain residues with an end cap or a label only (N-terminal biotin on a linker: ado-ado)

Binder	pKd
STKRKLASAV [NCF1, P14598]	below the threshold
SPDRDRESIV [SCN5A, Q14524]	4.89

Target: GRIP2_4, Q9C0E4
Experiment: holdup assay
Design: key: below the threshold = too weak to quantify, mostly under pKd 3.1 to 4
Details: plain residues with an end cap or a label only (N-terminal biotin on a linker: ado-ado)

Sequence of GRIP2_4, Q9C0E4 (Q9C0E4 446-548): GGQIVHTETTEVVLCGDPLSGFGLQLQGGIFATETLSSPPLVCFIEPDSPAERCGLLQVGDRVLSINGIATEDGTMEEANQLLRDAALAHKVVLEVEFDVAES

Binder	pKd
STKRKLASAV [NCF1, P14598]	below the threshold
SPDRDRESIV [SCN5A, Q14524]	below the threshold

Target: MAGI2_6, Q86UL8
Experiment: holdup assay
Design: key: below the threshold = too weak to quantify, mostly under pKd 3.1 to 4
Details: plain residues with an end cap or a label only (N-terminal biotin on a linker: ado-ado)

Sequence of MAGI2_6, Q86UL8 (Q86UL8 1141-1229): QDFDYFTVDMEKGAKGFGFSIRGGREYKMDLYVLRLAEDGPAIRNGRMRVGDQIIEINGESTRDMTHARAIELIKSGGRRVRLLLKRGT

Binder	pKd
STKRKLASAV [NCF1, P14598]	below the threshold
SPDRDRESIV [SCN5A, Q14524]	3.67

Target: DLG2_3, Q15700
Experiment: holdup assay
Design: key: below the threshold = too weak to quantify, mostly under pKd 3.1 to 4
Details: plain residues with an end cap or a label only (N-terminal biotin on a linker: ado-ado)

Binder	pKd
STKRKLASAV [NCF1, P14598]	4.09
SPDRDRESIV [SCN5A, Q14524]	below the threshold

Target: PDZRN4_1, Q6ZMN7
Experiment: holdup assay
Design: key: below the threshold = too weak to quantify, mostly under pKd 3.1 to 4
Details: plain residues with an end cap or a label only (N-terminal biotin on a linker: ado-ado)

Sequence of PDZRN4_1, Q6ZMN7 (Q6ZMN7 213-318): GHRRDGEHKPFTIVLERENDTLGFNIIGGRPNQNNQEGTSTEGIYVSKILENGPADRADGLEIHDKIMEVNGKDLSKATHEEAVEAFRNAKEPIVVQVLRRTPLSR

Binder	pKd
STKRKLASAV [NCF1, P14598]	below the threshold
SPDRDRESIV [SCN5A, Q14524]	3.95

Target: FRMPD2_1, Q68DX3
Experiment: holdup assay
Design: key: below the threshold = too weak to quantify, mostly under pKd 3.1 to 4
Details: plain residues with an end cap or a label only (N-terminal biotin on a linker: ado-ado)

Sequence of FRMPD2_1, Q68DX3 (Q68DX3 770-861): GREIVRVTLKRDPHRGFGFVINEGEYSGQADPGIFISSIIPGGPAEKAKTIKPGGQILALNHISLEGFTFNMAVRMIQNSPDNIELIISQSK

Binder	pKd
STKRKLASAV [NCF1, P14598]	below the threshold
SPDRDRESIV [SCN5A, Q14524]	below the threshold

Target: GRASP, Q7Z6J2
Experiment: holdup assay
Design: key: below the threshold = too weak to quantify, mostly under pKd 3.1 to 4
Details: plain residues with an end cap or a label only (N-terminal biotin on a linker: ado-ado)

Sequence of GRASP, Q7Z6J2 (Q7Z6J2 96-193): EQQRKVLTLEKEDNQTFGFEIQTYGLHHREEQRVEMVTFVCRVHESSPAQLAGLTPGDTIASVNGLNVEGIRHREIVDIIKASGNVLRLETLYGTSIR

Binder	pKd
STKRKLASAV [NCF1, P14598]	3.65
SPDRDRESIV [SCN5A, Q14524]	below the threshold

Target: T6, SNTG2, Q9NY99
Experiment: holdup assay
Design: key: below the threshold = too weak to quantify, mostly under pKd 3.1 to 4
Details: plain residues with an end cap or a label only (N-terminal biotin on a linker: ado-ado)

Binder	pKd
STKRKLASAV [NCF1, P14598]	below the threshold
SPDRDRESIV [SCN5A, Q14524]	4.69

Target: LNX1_1, Q8TBB1
Experiment: holdup assay
Design: key: below the threshold = too weak to quantify, mostly under pKd 3.1 to 4
Details: plain residues with an end cap or a label only (N-terminal biotin on a linker: ado-ado)

Sequence of LNX1_1, Q8TBB1 (Q8TBB1 261-371): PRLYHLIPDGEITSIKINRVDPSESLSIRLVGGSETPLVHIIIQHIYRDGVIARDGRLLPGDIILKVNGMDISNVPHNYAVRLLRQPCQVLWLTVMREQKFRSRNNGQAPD

Binder	pKd
STKRKLASAV [NCF1, P14598]	below the threshold
SPDRDRESIV [SCN5A, Q14524]	3.88

Target: T7, RAPGEF6, Q8TEU7
Experiment: holdup assay
Design: key: below the threshold = too weak to quantify, mostly under pKd 3.1 to 4
Details: plain residues with an end cap or a label only (N-terminal biotin on a linker: ado-ado)

Binder	pKd
STKRKLASAV [NCF1, P14598]	below the threshold
SPDRDRESIV [SCN5A, Q14524]	below the threshold

Target: T8, FRMPD1, Q5SYB0
Experiment: holdup assay
Design: key: below the threshold = too weak to quantify, mostly under pKd 3.1 to 4
Details: plain residues with an end cap or a label only (N-terminal biotin on a linker: ado-ado)

Binder	pKd
STKRKLASAV [NCF1, P14598]	below the threshold
SPDRDRESIV [SCN5A, Q14524]	below the threshold

Target: ARHGEF12, Q9NZN5-2
Experiment: holdup assay
Design: key: below the threshold = too weak to quantify, mostly under pKd 3.1 to 4
Details: plain residues with an end cap or a label only (N-terminal biotin on a linker: ado-ado)

Sequence of ARHGEF12, Q9NZN5-2 (Q9NZN5 other isoform, or with tags, fused parts or gaps): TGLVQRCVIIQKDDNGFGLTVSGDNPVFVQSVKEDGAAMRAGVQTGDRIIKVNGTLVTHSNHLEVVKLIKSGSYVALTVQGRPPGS

Binder	pKd
STKRKLASAV [NCF1, P14598]	3.79
SPDRDRESIV [SCN5A, Q14524]	below the threshold

Target: FRMPD2_2, Q68DX3
Experiment: holdup assay
Design: key: below the threshold = too weak to quantify, mostly under pKd 3.1 to 4
Details: plain residues with an end cap or a label only (N-terminal biotin on a linker: ado-ado)

Sequence of FRMPD2_2, Q68DX3 (Q68DX3 944-1038): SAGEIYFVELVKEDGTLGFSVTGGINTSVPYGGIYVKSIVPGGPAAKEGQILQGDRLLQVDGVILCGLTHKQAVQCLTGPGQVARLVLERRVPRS

Binder	pKd
STKRKLASAV [NCF1, P14598]	below the threshold
SPDRDRESIV [SCN5A, Q14524]	3.76

Target: Inadl_8, Q8NI35
Experiment: holdup assay
Design: key: below the threshold = too weak to quantify, mostly under pKd 3.1 to 4
Details: plain residues with an end cap or a label only (N-terminal biotin on a linker: ado-ado)

Sequence of Inadl_8, Q8NI35 (Q8NI35 1425-1530): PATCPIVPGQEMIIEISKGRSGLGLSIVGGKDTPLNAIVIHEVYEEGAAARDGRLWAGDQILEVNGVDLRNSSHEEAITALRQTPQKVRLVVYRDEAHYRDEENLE

Binder	pKd
STKRKLASAV [NCF1, P14598]	4.46
SPDRDRESIV [SCN5A, Q14524]	3.85

Target: MAGI2_3, Q86UL8
Experiment: holdup assay
Design: key: below the threshold = too weak to quantify, mostly under pKd 3.1 to 4
Details: plain residues with an end cap or a label only (N-terminal biotin on a linker: ado-ado)

Sequence of MAGI2_3, Q86UL8 (Q86UL8 600-682): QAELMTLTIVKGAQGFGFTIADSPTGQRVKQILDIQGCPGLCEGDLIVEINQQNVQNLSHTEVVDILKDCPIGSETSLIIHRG

Binder	pKd
STKRKLASAV [NCF1, P14598]	below the threshold
SPDRDRESIV [SCN5A, Q14524]	4.02

Target: T9, PDZD7_3, Q9H5P4
Experiment: holdup assay
Design: key: below the threshold = too weak to quantify, mostly under pKd 3.1 to 4
Details: plain residues with an end cap or a label only (N-terminal biotin on a linker: ado-ado)

Binder	pKd
STKRKLASAV [NCF1, P14598]	below the threshold
SPDRDRESIV [SCN5A, Q14524]	4.63

Target: T10, DVL3, Q92997
Experiment: holdup assay
Design: key: below the threshold = too weak to quantify, mostly under pKd 3.1 to 4
Details: plain residues with an end cap or a label only (N-terminal biotin on a linker: ado-ado)

Binder	pKd
STKRKLASAV [NCF1, P14598]	below the threshold
SPDRDRESIV [SCN5A, Q14524]	below the threshold

Target: T11, SIPA1L2, Q9P2F8
Experiment: holdup assay
Design: key: below the threshold = too weak to quantify, mostly under pKd 3.1 to 4
Details: plain residues with an end cap or a label only (N-terminal biotin on a linker: ado-ado)

Binder	pKd
STKRKLASAV [NCF1, P14598]	below the threshold
SPDRDRESIV [SCN5A, Q14524]	below the threshold

From article PMC9482650, “Quantitative fragmentomics allow affinity mapping of interactomes” (Nature Communications, 2022)
